Sequences and labels used below:
B1: unnamed (parent)
chain 1: MGNYIKPLSAGVALIASDSTWIEGKAIQQLQTTAELDGMCRVVGLPDLHPGRGYPVGAAFFSVGRFYPALVGNDIGCGMALWETGLALGKLSADKLEKRLGNLDLPLDETWSDCIEALDLPAREHWRALGTIGGGNHFAELQQVETVFDQAALHALGLDADRLQLLVHSGSRGLGQAILQEHVSLHGHAGLLDGSLEASAYLARHADALRFAEGNRQLIARRILERLRCDGLELLDINHNLVVPAQVDGVDGWLHRKGATPADQGVLVIPGSRGDYSYLVEPVPSAQSLFSLAHGAGRKWQRGECRERLAARFSVDQLGRTRLGSRVICGDRQLIYEEAPEAYKGIDSVVGALLEAGLLRLVARLKPVLTYKTRGECCR
chain 2: MARKTKEESQKTRDGILDAAERVFLEKGVGTTAMADLADAAGVSRGAVYGHYKNKIEVCLAMCDRAFGQIEVPDENARVPALDILLRAGMGFLRQCCEPGSVQRVLEILYLKCERSDENEPLLRRRELLEKQGQRFGLRQIRRAVERGELPARLDVELASIYLQSLWDGICGTLAWTERLRDDPWNRAERMFRAGLDSLRSSPYLLLADA

The variants in the assay derive from B1. Put plainly: bacterial 2-hybrid assay (β-galactosidase activity in E. coli SU202). The note with it: with partner chain of the complex shown; IPTG-induced cells; read off a plot.
On to chain 1 MGNYIKPLSAGVALIASDSTWIEGKAIQQLQTTAELDGMCRVVGLPDLHPGRGYPVGAAFFSVGRFYPALVGNDIGCGMALWETGLALGKLSADKLEKRLGNLDLPLDETWSDCIEALDLPAREHWRALGTIGGGNHFAELQQVETVFDQAALHALGLDADRLQLLVHSGSRGLGQAILQEHVSLHGHAGLLDGSLEASAYLARHADALRFAEGNCQLIARRILERLRCDGLELLDINHNLVVPAQVDGVDGWLHRKGATPADQGVLVIPGSRGDYSYLVEPVPSAQSLFSLAHGAGRKWQRGECRERLAARFSVDQLGRTRLGSRVICGDRQLIYEEAPEAYKGIDSVVGALLEAGLLRLVARLKPVLTYKTRGECCR [chain 1 R216C], for which the response is 720 Miller Units.

On to chain 1 MGNYIKPLSAGVALIASDSTWIEGKAIQQLQTTAELDGMCRVVGLPDLHPGRGYPVGAAFFSVGRFYPALVGNDISCGMALWETGLALGKLSADKLEKRLGNLDLPLDETWSDCIEALDLPAREHWRALGTIGGGNHFAELQQVETVFDQAALHALGLDADRLQLLVHSGSRGLGQAILQEHVSLHGHAGLLDGSLEASAYLARHADALRFAEGNRQLIARRILERLRCDGLELLDINHNLVVPAQVDGVDGWLHRKGATPADQGVLVIPGSRGDYSYLVEPVPSAQSLFSLAHGAGRKWQRGECRERLAARFSVDQLGRTRLGSRVICGDRQLIYEEAPEAYKGIDSVVGALLEAGLLRLVARLKPVLTYKTRGECCR [chain 1 G76S], for which the response is 470 Miller Units. Next, chain 1 MGNYIKPLSAGVALIASDSTWIEGKAIQQLQTTAELDGMCRVVGLPDLHPGRGYPVGAAFFSVGRFYSALVGNDIGCGMALWETGLALGKLSADKLEKRLGNLDLPLDETWSDCIEALDLPAREHWRALGTIGGGNHFAELQQVETVFDQAALHALGLDADRLQLLVHSGSRGLGQAILQEHVSLHGHAGLLDGSLEASAYLARHADALRFAEGNRQLIARRILERLRCDGLELLDINHNLVVPAQVDGVDGWLHRKGATPADQGVLVIPGSRGDYSYLVEPVPSAQSLFSLAHGAGRKWQRGECRERLAARFSVDQLGRTRLGSRVICGDRQLIYEEAPEAYKGIDSVVGALLEAGLLRLVARLKPVLTYKTRGECCR [chain 1 P68S]: 610 Miller Units. Next, chain 1 MGNYIKPLSAGVALIASDSTWIEGKAIQQLQTTAELDGMCRVVGLPDLHPGRGYPVGAAFFSVGRFYPALVGNDIGCGMALWETGLALGKLSADKLEKRLGNLDLPLDETWSDCIEALDLPAREHWRALGTIGGGNHFAELQQVETVFDQAALHALGLDADRLQLLVHSGSRGLGQAILQEHVSLHGHAGLLDGSLEASAYLARHADALRFAEGNRQLIARRILERLRCDGLELLDINHNLVVPAQVDGVDSWLHRKGATPADQGVLVIPGSRGDYSYLVEPVPSAQSLFSLAHGAGRKWQRGECRERLAARFSVDQLGRTRLGSRVICGDRQLIYEEAPEAYKGIDSVVGALLEAGLLRLVARLKPVLTYKTRGECCR [chain 1 G252S]: 700 Miller Units. Next, chain 1 MGNYIKPLSAGVALIASDSTWIEGKAIQQLQTTAELDGMCRVVGLPDLHPGRGYPVGAAFFSVGRFYPALVGNDIGCGMALWETGLALGKLSADKLEKRLGNLDLPLDETWSDCIEALDLPAREHWRALGTIGGGNHFAELQQVETVFDQAALHALGLDADRLQLLVHSGSRGLGQAILQEHVSLHGHAGLLDGSLEASAYLARHADALRFAEGNRQLIARRILERLRCDDLELLDINHNLVVPAQVDGVDGWLHRKGATPADQGVLVIPGSRGDYSYLVEPVPSAQSLFSLAHGAGRKWQRGECRERLAARFSVDQLGRTRLGSRVICGDRQLIYEEAPEAYKGIDSVVGALLEAGLLRLVARLKPVLTYKTRGECCR [chain 1 G231D]: 730 Miller Units. On to chain 1 MGNYIKPLSAGVALIASDSTWIEGKAIQQLQTTAELDGMCRVVGLPDLHPGRGYPVGAAFFSVGRFYPALVGNDIGCGMALWETGLALGKLSADKLEKRLGNLDLPLDETWSDCIEALDLPAREHWRALGTIGGGNHFAELQQVETVFDQAALHALGLDADRLQLLVHSGSRGLGQAILQEHVSLHGHAGLLDGSLEASAYLARHADALRFAEGNRQLIAQRILERLRCDGLELLDINHNLVVPAQVDGVDGWLHRKGATPADQGVLVIPGSRGDYSYLVEPVPSAQSLFSLAHGAGRKWQRGECRERLAARFSVDQLGRTRLGSRVICGDRQLIYEEAPEAYKGIDSVVGALLEAGLLRLVARLKPVLTYKTRGECCR [chain 1 R221Q], for which the response came out at 510 Miller Units. Next, chain 1 MGNYIKPLSAGVALIASDSTWIEGKAIQQLQTTAELDGMCRVVGLPDLHPGRGYPVGAAFFSVGRFYPALVGNDIGCGMALWETGLALGKLSADKLEKRLGNLDLPLDETWSDCIEALDLPAREHWRALGTIGGGNHFAELQQVETVFDQAALHALGLDADRLQLLVHSGSRGLGQAILQEHVSLHGHAGLLDGSLEASAYLARHADALRFAEGNRQLIAWRILERLRCDGLELLDINHNLVVPAQVDGVDGWLHRKGATPADQGVLVIPGSRGDYSYLVEPVPSAQSLFSLAHGAGRKWQRGECRERLAARFSVDQLGRTRLGSRVICGDRQLIYEEAPEAYKGIDSVVGALLEAGLLRLVARLKPVLTYKTRGECCR [chain 1 R221W]: 680 Miller Units.
